Reference: publication PMC6315623

Molecular target: BS69 MYND domain (residues 427-602) fused to a B42 activation domain (UniProt Q15326)
Assay: yeast two-hybrid (β-galactosidase activity)
Conditions: n = 3; parent: est. 1; read off a plot

BS69 MYND domain (residues 427-602) fused to a B42 activation domain, sequence (Q15326 427-602): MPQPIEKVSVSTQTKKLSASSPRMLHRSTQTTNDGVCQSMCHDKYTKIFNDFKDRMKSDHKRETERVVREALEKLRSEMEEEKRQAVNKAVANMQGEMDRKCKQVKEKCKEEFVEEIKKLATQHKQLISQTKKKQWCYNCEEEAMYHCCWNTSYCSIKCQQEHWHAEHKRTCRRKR

Substance | response (% of HAdV-A12 positive control)
HAdV-D9 E1A PXLXP motif fragment, wildtype, LexA DBD fusion P10C | 1.5
HAdV-D9 E1A PXLXP motif fragment, wildtype, LexA DBD fusion T5V | 1
HAdV-D9 E1A PXLXP motif fragment, wildtype, LexA DBD fusion T3P | 59
HAdV-D9 E1A PXLXP motif fragment, wildtype, LexA DBD fusion I9V | 1
